Data from the Human Domainome abundance scans (Beltran et al. 2025).
± gives the uncertainty stated by the source.

assay: abundance fitness (aPCA) (normalised: wild type 0, dead -1); higher = more abundant; growth selection in yeast, the domain comes from the species named; details: Homo sapiens

Which abundance fitness does the source give for “SAFB-like transcription modulator K53Y, Q9NWH9” here?
Its abundance fitness is -0.517 ± 0.18.

Which abundance fitness does the source give for “SAFB-like transcription modulator L25A, Q9NWH9” here?
The abundance fitness was -0.385 ± 0.032.

Which abundance fitness does the source give for “SAFB-like transcription modulator L25D, Q9NWH9” here?
Its abundance fitness is -0.665 ± 0.054.

Which abundance fitness does the source give for “SAFB-like transcription modulator L25E, Q9NWH9” here?
The abundance fitness was -0.308 ± 0.1.

Which abundance fitness does the source give for “SAFB-like transcription modulator L25F, Q9NWH9” here?
The abundance fitness was -0.312 ± 0.061.

Which abundance fitness does the source give for “SAFB-like transcription modulator L25G, Q9NWH9” here?
The abundance fitness was -0.715 ± 0.071.

For “SAFB-like transcription modulator L25H, Q9NWH9”, which abundance fitness is on record?
Its abundance fitness is -0.732 ± 0.16.

Which abundance fitness does the source give for “SAFB-like transcription modulator L25I, Q9NWH9” here?
Its abundance fitness is -0.467 ± 0.11.

For “SAFB-like transcription modulator L25K, Q9NWH9”, which abundance fitness is on record?
The abundance fitness was -0.407 ± 0.11.

Which abundance fitness does the source give for “SAFB-like transcription modulator L25M, Q9NWH9” here?
The abundance fitness was -0.768 ± 0.045.

For “SAFB-like transcription modulator L25N, Q9NWH9”, which abundance fitness is on record?
Its abundance fitness is -0.172 ± 0.18.

With “SAFB-like transcription modulator L25P, Q9NWH9” as the substance, how does the abundance fitness read?
Its abundance fitness is -0.718 ± 0.071.

Which abundance fitness does the source give for “SAFB-like transcription modulator L25Q, Q9NWH9” here?
The abundance fitness was -0.181 ± 0.31.

Which abundance fitness does the source give for “SAFB-like transcription modulator L25R, Q9NWH9” here?
The abundance fitness was -0.663 ± 0.05.

With “SAFB-like transcription modulator L25S, Q9NWH9” as the substance, how does the abundance fitness read?
Its abundance fitness is -0.745 ± 0.077.

For “SAFB-like transcription modulator L25T, Q9NWH9”, which abundance fitness is on record?
The abundance fitness was -0.536 ± 0.063.

Which abundance fitness does the source give for “SAFB-like transcription modulator L25V, Q9NWH9” here?
Its abundance fitness is -0.748 ± 0.061.

With “SAFB-like transcription modulator L25W, Q9NWH9” as the substance, how does the abundance fitness read?
The abundance fitness was -0.219 ± 0.055.

Which abundance fitness does the source give for “SAFB-like transcription modulator L30A, Q9NWH9” here?
Its abundance fitness is -0.581 ± 0.035.

For “SAFB-like transcription modulator L30C, Q9NWH9”, which abundance fitness is on record?
The abundance fitness was -0.497 ± 0.083.

With “SAFB-like transcription modulator L30D, Q9NWH9” as the substance, how does the abundance fitness read?
The abundance fitness was -0.65 ± 0.083.

For “SAFB-like transcription modulator L30E, Q9NWH9”, which abundance fitness is on record?
Its abundance fitness is -0.6 ± 0.05.

Which abundance fitness does the source give for “SAFB-like transcription modulator L30F, Q9NWH9” here?
Its abundance fitness is -0.706 ± 0.055.

With “SAFB-like transcription modulator L30H, Q9NWH9” as the substance, how does the abundance fitness read?
The abundance fitness was -0.902 ± 0.17.

For “SAFB-like transcription modulator L30I, Q9NWH9”, which abundance fitness is on record?
The abundance fitness was -0.129 ± 0.067.

With “SAFB-like transcription modulator L30K, Q9NWH9” as the substance, how does the abundance fitness read?
Its abundance fitness is -1.33 ± 0.27.

With “SAFB-like transcription modulator L30N, Q9NWH9” as the substance, how does the abundance fitness read?
Its abundance fitness is -0.267 ± 0.19.

Which abundance fitness does the source give for “SAFB-like transcription modulator L30P, Q9NWH9” here?
Its abundance fitness is -0.716 ± 0.067.

With “SAFB-like transcription modulator L30Q, Q9NWH9” as the substance, how does the abundance fitness read?
The abundance fitness was -0.959 ± 0.17.

For “SAFB-like transcription modulator L30R, Q9NWH9”, which abundance fitness is on record?
Its abundance fitness is -0.949 ± 0.056.

For “SAFB-like transcription modulator L30S, Q9NWH9”, which abundance fitness is on record?
The abundance fitness was -0.776 ± 0.058.

With “SAFB-like transcription modulator L30T, Q9NWH9” as the substance, how does the abundance fitness read?
The abundance fitness was -0.936 ± 0.11.

Which abundance fitness does the source give for “SAFB-like transcription modulator L30V, Q9NWH9” here?
The abundance fitness was -0.295 ± 0.05.

Which abundance fitness does the source give for “SAFB-like transcription modulator L30W, Q9NWH9” here?
The abundance fitness was -0.748 ± 0.098.

With “SAFB-like transcription modulator L30Y, Q9NWH9” as the substance, how does the abundance fitness read?
Its abundance fitness is -1 ± 0.13.

With “SAFB-like transcription modulator L34A, Q9NWH9” as the substance, how does the abundance fitness read?
Its abundance fitness is -0.767 ± 0.092.

With “SAFB-like transcription modulator L34C, Q9NWH9” as the substance, how does the abundance fitness read?
Its abundance fitness is -0.496 ± 0.1.

With “SAFB-like transcription modulator L34D, Q9NWH9” as the substance, how does the abundance fitness read?
Its abundance fitness is -0.414 ± 0.12.

With “SAFB-like transcription modulator L34E, Q9NWH9” as the substance, how does the abundance fitness read?
The abundance fitness was -0.594 ± 0.087.

For “SAFB-like transcription modulator L34F, Q9NWH9”, which abundance fitness is on record?
The abundance fitness was -0.945 ± 0.2.

For “SAFB-like transcription modulator L34G, Q9NWH9”, which abundance fitness is on record?
Its abundance fitness is -0.829 ± 0.043.
